The Immune Epitope Database (IEDB)
Values belong to the sequence of their own block, whether it stands above or below them.

Assays:
HLA-A*31:01 = experiment: IEDB peptide-MHC binding, purified MHC/direct/fluorescence; filed as Kd, often an IC50 or EC50 that approximates it; ≥ and ≤ were set here for values at or beyond the usual limits of such assays
HLA-A*03:01 = experiment: as above
HLA-B*58:01 = experiment: as above
HLA-B*08:01 = experiment: as above
HLA-A*24:03 = experiment: as above
HLA-A*01:01 [1] = experiment: as above
HLA-B*15:01 [2] = experiment: as above
HLA-A*69:01 = experiment: as above
HLA-B*27:05 = experiment: as above
HLA-B*40:01 = experiment: as above
HLA-B*07:02 [3] = experiment: as above
HLA-A*26:01 = experiment: as above
HLA-A*11:01 = experiment: as above
HLA-A*02:01 [4] = experiment: as above
HLA-B*44:02 = experiment: as above
HLA-A*02:50 = experiment: IEDB peptide-MHC binding, purified MHC/competitive/fluorescence; filed as Kd, often an IC50 or EC50 that approximates it; ≥ and ≤ were set here for values at or beyond the usual limits of such assays
HLA-B*48:01 [5] = experiment: as above; settings: source organism: Giardia lamblia ATCC 50803
HLA-B*15:17 [6] = experiment: IEDB peptide-MHC binding, purified MHC/direct/fluorescence; filed as Kd, often an IC50 or EC50 that approximates it; ≥ and ≤ were set here for values at or beyond the usual limits of such assays; settings: source organism: Marburg virus - Musoke, Kenya, 1980
HLA-B*46:01 = experiment: as above
HLA-B*08:02 = experiment: as above
HLA-B*57:01 = experiment: as above
HLA-B*38:01 = experiment: as above; settings: source organism: Ravn virus - Ravn, Kenya, 1987
HLA-B*15:09 = experiment: as above; settings: source organism: Ravn virus - Ravn, Kenya, 1987
HLA-B*48:01 [7] = experiment: as above; settings: source organism: Marburg virus - Musoke, Kenya, 1980
HLA-A*68:02 = experiment: as above
HLA-B*18:01 = experiment: as above
HLA-C*05:01 = experiment: as above
HLA-B*39:01 = experiment: as above; settings: source organism: Marburg virus - Musoke, Kenya, 1980
HLA-A*26:02 = experiment: IEDB peptide-MHC binding, purified MHC/competitive/fluorescence; filed as Kd, often an IC50 or EC50 that approximates it; ≥ and ≤ were set here for values at or beyond the usual limits of such assays
HLA-A*30:01 = experiment: as above; settings: source organism: Orthomarburgvirus marburgense
HLA-A*02:01 [8] = experiment: as above; settings: source organism: Orthomarburgvirus marburgense
HLA-A*24:02 = experiment: IEDB peptide-MHC binding, purified MHC/direct/fluorescence; filed as Kd, often an IC50 or EC50 that approximates it; ≥ and ≤ were set here for values at or beyond the usual limits of such assays; settings: source organism: Escherichia coli O157:H7
HLA-C*04:01 = experiment: as above
HLA-B*07:02 [9] = experiment: IEDB peptide-MHC binding, purified MHC/competitive/fluorescence; filed as Kd, often an IC50 or EC50 that approximates it; ≥ and ≤ were set here for values at or beyond the usual limits of such assays
HLA-C*12:03 = experiment: IEDB peptide-MHC binding, purified MHC/direct/fluorescence; filed as Kd, often an IC50 or EC50 that approximates it; ≥ and ≤ were set here for values at or beyond the usual limits of such assays; settings: source organism: Coxiella burnetii RSA 331
HLA-C*07:02 = experiment: as above
HLA-B*15:17 [10] = experiment: IEDB peptide-MHC binding, purified MHC/competitive/fluorescence; filed as Kd, often an IC50 or EC50 that approximates it; ≥ and ≤ were set here for values at or beyond the usual limits of such assays; settings: source organism: Vaccinia virus Tian Tan
HLA-A*02:06 = experiment: as above; settings: source organism: Vaccinia virus Tian Tan
HLA-A*01:01 [11] = experiment: as above; settings: source organism: Vaccinia virus Tian Tan
HLA-B*15:01 [12] = experiment: as above; settings: source organism: Vaccinia virus Tian Tan
[13] = source organism: Salmonella enterica subsp. enterica serovar Typhimurium
[14] = source organism: Marburg virus - Musoke, Kenya, 1980
[15] = source organism: Orthomarburgvirus marburgense
[16] = source organism: Escherichia coli O157:H7
[17] = source organism: Mycobacterium tuberculosis C
[18] = source organism: Coxiella burnetii
[19] = source organism: Camelpox virus CMS
[20] = source organism: Vaccinia virus Tian Tan
[21] = source organism: Tokudaia muenninki

Sequence: FMIDWILDA
- Kd (HLA-A*31:01; [13]): ≥ 20 µM
- Kd (HLA-A*03:01; [13]): ≥ 20 µM
- Kd (HLA-B*58:01; [13]): ≥ 20 µM
- Kd (HLA-B*08:01; [13]): ≥ 20 µM
- Kd (HLA-A*24:03; [13]): ≥ 20 µM
- Kd (HLA-A*01:01 [1]; [13]): ≥ 20 µM
- Kd (HLA-B*15:01 [2]; [13]): 0.264 µM
- Kd (HLA-A*69:01; [13]): 0.056 µM
- Kd (HLA-B*27:05; [13]): ≥ 20 µM
- Kd (HLA-B*40:01; [13]): ≥ 20 µM
- Kd (HLA-B*07:02 [3]; [13]): ≥ 20 µM
- Kd (HLA-A*26:01; [13]): ≥ 20 µM
- Kd (HLA-A*11:01; [13]): ≥ 20 µM
- Kd (HLA-A*02:01 [4]; [13]): 0.003 µM
- Kd (HLA-B*44:02; [13]): ≥ 20 µM
- Kd (HLA-A*02:50; source organism: Aeromonas salmonicida subsp. salmonicida): ≤ 0.0001 µM

Sequence: GMYGHPFAL
- Kd (HLA-B*48:01 [5]): 0.0283 µM

Sequence: IFDDLQGSL
- Kd (HLA-B*15:17 [6]): ≥ 20 µM
- Kd (HLA-B*46:01; [14]): ≥ 20 µM
- Kd (HLA-B*08:02; source organism: Ravn virus - Ravn, Kenya, 1987): ≥ 20 µM
- Kd (HLA-B*58:01; [14]): ≥ 20 µM
- Kd (HLA-B*57:01; [14]): ≥ 20 µM
- Kd (HLA-B*38:01): ≥ 20 µM
- Kd (HLA-B*15:09): ≥ 20 µM
- Kd (HLA-A*01:01 [1]; [14]): ≥ 20 µM
- Kd (HLA-B*15:01 [2]; [14]): ≥ 20 µM
- Kd (HLA-B*48:01 [7]): ≥ 20 µM
- Kd (HLA-A*68:02; [14]): ≥ 20 µM
- Kd (HLA-A*69:01; [14]): ≥ 20 µM
- Kd (HLA-B*27:05; [14]): ≥ 20 µM
- Kd (HLA-B*40:01; [14]): ≥ 20 µM
- Kd (HLA-B*07:02 [3]; [14]): ≥ 20 µM
- Kd (HLA-B*18:01; [14]): ≥ 20 µM
- Kd (HLA-C*05:01; [15]): 3.84 µM
- Kd (HLA-B*39:01): ≥ 20 µM
- Kd (HLA-A*26:02; [15]): ≥ 20 µM
- Kd (HLA-A*30:01): ≥ 20 µM
- Kd (HLA-A*02:01 [8]): ≥ 20 µM

- Kd (HLA-A*31:01; [16]): ≥ 20 µM
- Kd (HLA-B*46:01; [16]): ≥ 20 µM
- Kd (HLA-A*03:01; [16]): ≥ 20 µM
- Kd (HLA-B*58:01; [16]): ≥ 20 µM
- Kd (HLA-B*15:01 [2]; [16]): ≥ 20 µM
- Kd (HLA-B*27:05; [16]): ≥ 20 µM
- Kd (HLA-B*40:01; [16]): ≥ 20 µM
- Kd (HLA-B*07:02 [3]; [16]): ≥ 20 µM
- Kd (HLA-A*24:02): ≥ 20 µM
- Kd (HLA-A*11:01; [16]): ≥ 20 µM
- Kd (HLA-A*02:01 [4]; [16]): 0.0042 µM
- Kd (HLA-B*44:02; [16]): ≥ 20 µM
- Kd (HLA-A*02:50; source organism: Escherichia coli 536): ≤ 0.0001 µM
Sequence: LLDPLYFEV

Sequence: VYAPAGVEL
- Kd (HLA-A*24:03; source organism: Mycobacterium tuberculosis): 0.0021 µM
- Kd (HLA-C*04:01; [17]): ≥ 20 µM
- Kd (HLA-C*05:01; [17]): ≥ 20 µM

Sequence: YPRYPGVRC
- Kd (HLA-B*07:02 [9]; source organism: Influenza A virus (A/nt/60/1968(H3N2))): 0.0103 µM

Sequence: YTYPIAHTA
- Kd (HLA-A*69:01; [18]): 0.0025 µM
- Kd (HLA-C*12:03): 0.004 µM
- Kd (HLA-A*02:01 [4]; [18]): 0.852 µM
- Kd (HLA-A*02:50; source organism: Coxiella burnetii RSA 331): 0.0011 µM

Sequence: YYKDDISYF
- Kd (HLA-A*31:01; [19]): ≥ 20 µM
- Kd (HLA-B*08:02; source organism: Variola virus): ≥ 20 µM
- Kd (HLA-B*58:01; [19]): ≥ 20 µM
- Kd (HLA-B*57:01; [19]): ≥ 20 µM
- Kd (HLA-B*08:01; source organism: Variola virus): ≥ 20 µM
- Kd (HLA-A*24:03; [19]): 0.0037 µM
- Kd (HLA-A*68:02; [19]): ≥ 20 µM
- Kd (HLA-A*69:01; [19]): ≥ 20 µM
- Kd (HLA-B*18:01; [19]): ≥ 20 µM
- Kd (HLA-C*07:02; [20]): 0.029 µM
- Kd (HLA-A*26:01; source organism: Variola virus): 0.579 µM
- Kd (HLA-A*11:01; [19]): ≥ 20 µM
- Kd (HLA-A*02:01 [4]; [19]): ≥ 20 µM
- Kd (HLA-B*15:17 [10]): ≥ 20 µM
- Kd (HLA-A*26:02; [20]): 0.0347 µM
- Kd (HLA-A*02:06): ≥ 20 µM
- Kd (HLA-A*01:01 [11]): 1.39 µM
- Kd (HLA-B*15:01 [12]): ≥ 20 µM
- Kd (HLA-B*07:02 [9]; [20]): ≥ 20 µM

Sequence: YYNAFQWAI
- Kd (HLA-C*07:02; [21]): 0.03 µM
- Kd (HLA-C*04:01; [21]): ≥ 20 µM
